Measured values reported in paper PMC2840190.

Legend:
[1] = target: gp120-B prebound to sCD4 (HIV-1 (B subtype, isolate YU2) | human) (UniProt P35961); assay: ITC
[2] = target: gp120-A prebound to sCD4 (HIV-1 (A subtype, isolate 92UG031) | human); assay: ITC

Sequence of UniProt P35961 (P35961 whole entry, looked up): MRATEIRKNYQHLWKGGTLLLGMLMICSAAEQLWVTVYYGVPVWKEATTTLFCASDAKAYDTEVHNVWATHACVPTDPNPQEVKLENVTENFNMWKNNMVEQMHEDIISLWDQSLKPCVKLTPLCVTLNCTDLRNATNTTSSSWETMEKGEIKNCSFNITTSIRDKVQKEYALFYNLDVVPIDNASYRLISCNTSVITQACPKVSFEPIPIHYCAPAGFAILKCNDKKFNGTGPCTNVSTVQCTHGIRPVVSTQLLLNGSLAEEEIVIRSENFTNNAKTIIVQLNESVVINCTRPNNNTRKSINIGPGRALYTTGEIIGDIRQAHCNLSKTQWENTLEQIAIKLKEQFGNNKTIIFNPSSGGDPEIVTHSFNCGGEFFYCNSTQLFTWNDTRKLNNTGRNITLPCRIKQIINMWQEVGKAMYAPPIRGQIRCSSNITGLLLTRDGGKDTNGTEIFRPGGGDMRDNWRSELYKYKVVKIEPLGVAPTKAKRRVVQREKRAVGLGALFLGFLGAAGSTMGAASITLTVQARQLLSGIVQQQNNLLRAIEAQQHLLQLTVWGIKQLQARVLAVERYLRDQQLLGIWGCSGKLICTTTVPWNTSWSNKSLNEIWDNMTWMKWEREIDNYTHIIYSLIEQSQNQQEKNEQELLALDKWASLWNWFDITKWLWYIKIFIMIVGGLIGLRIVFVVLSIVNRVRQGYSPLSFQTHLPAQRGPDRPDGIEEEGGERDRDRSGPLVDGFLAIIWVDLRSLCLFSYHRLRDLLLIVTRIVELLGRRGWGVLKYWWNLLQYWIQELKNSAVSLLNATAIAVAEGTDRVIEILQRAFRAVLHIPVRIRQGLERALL

## Monoclonal antibody 17b
[1]
  dH: -11.1 kcal/mol
[2]
  Kd: 12 nM
